From the DeepSol protein solubility set

assay: soluble on expression in E. coli; label from the status in PepcDB or PDB records

Sequence | soluble on expression in E. coli
MRGSHHHHHHGMTIFEKKPDFTLFLQTLSWEIDDQVGIEVRNELLREVGRGMGTRIMPPPCQTVDKLQIELNALLALIGWGTVTLELLSEDQSLRIVHENLPQVGSAGEPSGTWLAPVLEGLYGRWVTSQAGAFGDYVVTRDVDAEDLNAVPRQTIIMYMRVRSSAT | soluble
MLRIAFASALRFVRRHSSVLQADFEGGVSQSHISRLERGESSVTLERLEEIAAHLNVHPLSLIALTWGASEQIPPAELLERVRRELESVEGLLRPIAIDDQPAVHPRIIEAEKVRNEVQRLKALGHTKAEISRLMGIAKSTAARHW | not soluble
MGSDKIHHHHHHMNLKLDHIIHYLHQLESFKFPGEILELQNGGRHHHLGTFNQIAPIKNSYIELLDVENESKLSNIAKTEEGRVSFATKIVQDHFKQGFKGICFRTKDINQVKSTLENRGVDVIGPIDMERENKKGHQIRWRLLYIANPDYTVKPPFFIEWDNNKKQNLSQIHNFNLSSFKIKEVIITSTQRETTVSLWKEWYNLKIVNETATSTDLKLETDEVIYKIEDGKDSGFHTLIMTDINATAPYSIFIRGAKYRFEPPN | not soluble
MGSDKIHHHHHHQQLLLIEKLDGTLEDYLFSDDFDEKVLLSCLFQISFSLHYLQKHYKFTHNDLHINNVMYSETTTKYLYYKFNNQYFKIPTYGKIFKIIDFGRSIFTYNNKIYMNDVFTKNSEAWGQFYYPPQVQFLTKPPEDIPNIEPNYNFDLCRLSMTIIEEIDKSKLSENMFNFLNDMCIDKFNENYCEMEDNFSLYINISKNAINSLPEDILNKTIFKQYKVIKKNFPSKLYYK | not soluble
MIMVNNDAVVRNVYHKYFHPKEALVSSGVLNREISRAAGKAVPGIIDEESSGNNAQ | soluble
MGNSCQNGTYGNNYQNSNRFQNDRFASRYVDGNDTEDCYSGSSRASLAGALRQGLNLKSPVLGYKTPNVRELYTLGRELGQGQFGKTYLCTEISTGCQYACKTILKSNLRCVSDIEDVRREIQIMHHLSGQKNIVTIKDTYEDEQAVHIVMELCAGGELFSKIQKRGHYSERKAAELIKIIVGIIETCHSHGVMHRDLKPENFLLLDADDEFSVKAIDFGLSVFFRPGQVFREVVGSPYYIAPEVLEKRYGPEADIWTAGVILYVLLTGVPPFWADTQSGIYEKVLDGRIDFKSNRWPRISDSAKDLIKKMLCPYPSERLKAHEVLKHPWICDNGVATNRALDPSVLPRLKQFSAMNRLKKLSLQIIAERLSEEEIVGLREMFKAMDTKNRSVVTFGELKGLKRYSSVFKDTEINDLMEAADDTTSTINWEEFIAAAVSLNKIEREKHLMAAFTYFDKDGSGFITVDKLQKACMERNMEDTFLEEMILEVDQNNDGQIDYAEFVTMMQSNNFGLGWQTVESSLNVALREAPQVY | not soluble
GSNEIKRGAVDLIKTGVNEKAMAGAVFSLFKKDGTEVKKELATDANGHIRVQGLEYGEYYFQETKAPKGYVIDPTKREFFVKNSGTINEDGTITSGTVVKMEVKNNEEPTIDKKINGKLEALPINPLTNYNYDIKTLIPEDIKEYKKYVVTDTLDNRLVIQGKPIVKIDGAEVNANVVEVAIEGQKVTATVKDFTKMDGKKEFHLQIKSQVKEGVPSGSEILNTAKIHFTNKNDVIGEKESKPVVVIPTTGIIELTKIDSANKNKMKGAEFVLKDNNGKIVVVAGKEVTGVSDENGVIKWSNIPYGDYQIFETKAPTYTKEDGTKTSYQLLKDPIDVKISENNQTVKLTIENNKS | soluble
MGSDKIHHHHHHENLYFQGMTQFKLIGFDLDGTLVNSLPDLALSINSALKDVNLPQASENLVMTWIGNGADVLSQRAVDWACKQAEKELTEDEFKYFKRQFGFYYGENLCNISRLYPNVKETLEALKAQGYILAVVTNKPTKHVQPILTAFGIDHLFSEMLGGQSLPEIKPHPAPFYYLCGKFGLYPKQILFVGDSQNDIFAAHSAGCAVVGLTYGYNYNIPIAQSKPDWIFDDFADILKITQ | soluble
AGGLKYDLDLNLSHYKSVLKSMANPDYLYEYGALRTYVGGEIGEFWVYQTAGIFQNQAEVDEWNTAHGYKDQNGNWQPLQPVAKPGDIRFIDQNGDGMLDTNDRVKVGSGTPKVSLGFNINLTYKDFDLVANFYGDFGAKRYNYTKYQLERMDHVFNYGKNALNAWTPENPDTDIPRAVSGDPNKNSRTSTRFVENGDYLRLNNLQIGYNLPVKYCKKMGLSNLRIYVGATRLFTITNYKGYDPSTGSSVGQMGYDYAAIPLSRDFMMGLKFGF | not soluble
MDTIININNNNQKYPQSAEEYHKVLCNYFITLQSAMQSTSRPSSSSPPSLPAVSSELLSSSFPTNAPESSSRDLAPKQNQFTINVVLFDEKKKKNPEENLPANGDQLATLRSLMMQINPSSPPSIPATSPQLPLAESENVPESSSTLKDHKFSLNTMLFNVKKNDAVKISLANQEQWAKFHEIGTEMMVFNSGRRLFPLLAYKVSGLDPHKLYCAGVHMIPDSAYKQEYDHDLQQWVNCLNQKKTIFKPTSEILGRIENGFKLMSLGIDMSDVKIFNIAIRKKTPLQIEKSRKPNLDKTIEVLIQYKYLPVIKIYELSNSGMEKKEIAQATFPETSFVTVSIYRNQKIKEMKTLGNKYCRTDRKQIVMEQRGELEQ | not soluble
MKLSQVVVSAVAFTGLVSAANSSNSSSSKNAAQPIAGLNNGKVAGAAGVALAGALAFLI | soluble
MSGASSITATEPYRDVQIRPAVAPDVARVAAIDEAATGEAKPRYWQSLFENFSQARAGCRAFLIAELKGEVVGFICGEVRDFEFGAESCGWVFALTVDPAIRVNSIGTQLFEEICQIFTQAGVRKVRTMIEHDNQLVMAFFRSQGLMVGRFIGMEKNLD | soluble
MAVTGQVKWFNNEKGFGFIEVPGENDVFVHFSAIETDGFKSLEEGQKVSFEIEEGNRGPQAKNVIKL | not soluble
MAHHHHHHMAQASGCELMDFVSVLPVPPQTERRRGVLRFVGSTDFAPGLWMGIELFGTIGRNDGSVMGKSYFSCPAGQGVFVRPELVVPYMSEGEGPSGTVRKGDEFLAVVEPLRADLTRMQEELQQREAALRDAREELRNVMALHDAKSVELEREREEKSRMIMLTMTACRNNVTATTQTDEDKAVEVKDLEIHRLQQQCADLRDLCELQEDEIHRQREHADDLAQIVENLRREHEEERVRMVEKIRSLEEEITQRQKATAEDSAKADVEDMHLHAFQQQQEKEALRILKERYEQLYAERESERHEQEAKWKRATAEYEEALTQQREYKNRLLNEIRQLQHEIKDMRHSRERERVLQVPLSTLERDEYESQIYGLQWELMGVHEEMFSKRYDHFLAPVSSWNLPADVMRALSEEIMSLERVLPFTTPEKCQQSRMVLFQMHPRDAEGGTIAAAPL | not soluble
MINRNEEQNFNKLSEVINEYNKLQISQQIDYDKFYLYSIITHSTAIEGSTITEIENQLLFDEGISANKPIHEQLMNLDLKAAYEKSFELAKQHTQITPEILCELSVLVMKNTGTVYNTIGGTFSSAKGELRLVNVSAGRGGKSYMAWQKLPQKLEEFCSWLNSERKSIAEKDIEAQYAFSFLAHYKLVHIHPWADGNGRMSRLLMNVIQYEAGLVPAIIKKENRAEYIQSLASSQDKDDPAEFLHFMFSHHIRNLSEQIEEYKNSLEMSGS | not soluble
MKVTIIGASGRVGSATALLLAKEPFMKDLVLIGREHSINKLEGLREDIYDALAGTRSDANIYVESDENLRIIDESDVVIITSGVPRKEGMSRMDLAKTNAKIVGKYAKKIAEICDTKIFVITNPVDVMTYKALVDSKFERNQVFGLGTHLDSLRFKVAIAKFFGVHIDEVRTRIIGEHGDSMVPLLSATSIGGIPIQKFERFKELPIDEIIEDVKTKGEQIIRLKGGSEFGPAAAILNVVRCIVNNEKRLLTLSAYVDGEFDGIRDVCIGVPVKIGRDGIEEVVSIELDKDEIIAFRKSAEIIKKYCEEVKNL | soluble
MGSDKIHHHHHHMRALLCGYYGEGNGGDEALLAALLQLLPPTVEPLVLSGNPAATRTCYGVEACDRRSGAAVWQALRRSDLFIFGGGSLIQDVTSWTSPLYYCGLMGLAQQLGLKTIAWAQGIGPLQRKRTRWLARRTFQHCDRITVRDRGSAALLKEWGISVAIAPDPVWALEPLPLDQPLSNQEAIAVCLRPHPELTPERSDRLKAALTTLQSQTQAPILLIPFHHQQDRPLAAQWASEIPQAEVLDWQHPRQLLSYFQSVRLTIAMRFHGLVMAAAAGNRCFGLSYDPKVRRFLDALEQPGWDLPEIPDSAEAIAAAWLESWQAEPIHAAAIADLRQQVDVHRQALVF | not soluble
MKVIEVTHPIQSKQYITEDVAMAFGFFDGMHKGHDKVFDILNEIAEARSLKKAVMTFDPHPSVVLNPKRKRTTYLTPLSDKIEKISQHDIDYCIVVNFSSRFANVSVEDFVENYIIKNNVKEVIAGFDFTFGKFGKGNMTVLQEYDAFNTTIVSKQEIENEKISTTSIRQDLINGELQKANDALGYIYSIKGTVVQGEKRGRTIGFPTANIQPSDDYLLPRKGVYAVSIEIGTENKLYRGVANIGVKPTFHDPNKAEVVIEVNIFDFEDNIYGERVTVNWHHFLRPEIKFDGIDPLVKQMNDDKSRAKYLLAVDFGDEVAYNI | not soluble
MSRQDPRTIEFLESVGKGEIPPSLVQQYPGKEIDFKVNRHHEEYVAPKMKPFGGSGVRLGNVVPTVLGQSSSSATTAGTSSATTDHNPDHTAENEAKQLEDAKKELSTNMNEPTTNIQIRLPNNQRLVGIFNHSHTLEAVRTFICTARPDMIYAPFQMMAAYPPKPFEDESQTLKDANVLNSVVAVKILPTTN | not soluble
MTAFFCTLQDDRIISLDWQEGADIDLIYLAPGRTLPSQKGAVSHVLQGKDLRKGWSIDHGELTVGVSSLAVAVKNANGDVLGAVAVAGLSASVESKIDTIRDTLKETACAIA | not soluble
MGSDKIHHHHHHMSDIIDEVISSFKTSSIFINREYLLPDYIPDELPHREDQIRKIASILAPLYREEKPNNIFIYGLTGTGKTAVVKFVLSKLHKKFLGKFKHVYINTRQIDTPYRVLADLLESLDVKVPFTGLSIAELYRRLVKAVRDYGSQVVIVLDEIDAFVKKYNDDILYKLSRINSEVNKSKISFIGITNDVKFVDLLDPRVKSSLSEEEIIFPPYNAEELEDILTKRAQMAFKPGVLPDNVIKLCAALAAREHGDARRALDLLRVSGEIAERMKDTKVKEEYVYMAKEEIERDRVRDIILTLPFHSKLVLMAVVSISSEENVVSTTGAVYETYLNICKKLGVEAVTQRRVSDIINELDMVGILTAKVVNRGRYGKTKEIGLAVDKNIIVRSLIESDSRFADLWS | not soluble
MAIDNIKAYVHLSDADIEEIGRRLDQIKAEVTQSLGARDVAYIKRLIRTQRSLEAAGRFALLFAGNKKCWWLGTGLLSTAKILENLEIGHNVLHGQWDWMNDPEIHSTTWEWDIVCPSSQWMHSHNFVHHTYTNVLGMDNDVGYGILRVTRDRKWTPLHAFQPAVNTVLAAMFQWAVGYYDVELGRYLTKRADWNDTKDKFWETTNKAGRQLARDYVFYPALARKAFPQAVKANAVANLVRSVWAYSVIFCGHFPDEAETFTKEQFKNEDHNQWYLRQMLGSANFYGGKLLTIMSGNLNYQIEHHLFPDMPSNRLAEVGEKVRALCDEYDLPYNVDSFPAQLFKVQKTLLKLTLPNKYLVASPDNAPEVRSNRAFSQNPELEHHHHHH | soluble
MDYYYYPFVSDPYAVYTPNVWQSQGADELYLYSMPAIERQPQPVLSNAPAQTSIVLFKELTGYPNYGNPSGNADILYTGNRGTWTFDIQPILLIPGNLTAQLVIRGVLDDHTNVPVANYSARITINGTVVHTGRLPLVHGSPAGQRFNNWRLLTFNVPNLRRNNTVVIQNTSNTGPNDWIAFDWMELRLQPR | not soluble
